Reference: paper PMC6556580 (The Journal of Biological Chemistry, 2019)
Where “and” joins values, the source holds several entries; their conditions need not be identical. Equal values may be shown once. Read-outs that look alike come from different tables or passages of the source.

What was measured:
[1] = target: the molecule itself; assay: SEC-MALS; samples at 0.5–20 mg/ml in 20 mM Tris pH 8.0, 150 mM KCl, 2 mM DTT; Superdex 200 Increase 10/300 GL; concentration series and enriched species; self-association: dimer and higher oligomers of dimers
[2] = target: the molecule itself; assay: as above; remark: listed apart in the source
[3] = target: the molecule itself; assay: dynamic light scattering; 20 °C, samples at 5–20 mg/ml in 20 mM Tris pH 8.0, 150 mM KCl, 2 mM DTT; size distribution by volume

Protein	stoichiometry N [1]	stoichiometry N [2]	further results
SYCE3 12–88 L15N (domain or fragment, human, UniProt A1L190 12-88, looked up, SYCE3, human, amino acids 12–88 with point mutation L15N; source: E. coli BL21(DE3), purified (Ni-NTA, amylose, anion exchange, SEC where appropriate); not shown: His6, N-terminal, cleaved; MBP, N-terminal, cleaved) DNMNKMLSDLNKDLEKLLEEMEKISVQATWMAYDMVVMRTNPTLAESMRRLEDAFVNCKEEMEKNWQELLHETKQRL	2	–	–
SYCE3 12–88 (domain or fragment, human, UniProt A1L190 12-88, looked up, SYCE3, human, amino acids 12–88 (α1 N-terminal tip removed, structural core kept); source: E. coli BL21(DE3), purified (Ni-NTA, amylose, anion exchange, SEC where appropriate); not shown: His6, N-terminal, cleaved; MBP, N-terminal, cleaved) DNMLKMLSDLNKDLEKLLEEMEKISVQATWMAYDMVVMRTNPTLAESMRRLEDAFVNCKEEMEKNWQELLHETKQRL	–	2	–
SYCE3 1–88 W41A/Y44A (natural protein, human, UniProt A1L190 1-88, looked up, SYCE3, human, amino acids 1–88 with W41A and Y44A; also called SYCE3 W41A/Y44A; source: E. coli BL21(DE3), purified (Ni-NTA, amylose, anion exchange, SEC where appropriate); not shown: His6, N-terminal, cleaved; MBP, N-terminal, cleaved) MDDADPEERNYDNMLKMLSDLNKDLEKLLEEMEKISVQATAMAADMVVMRTNPTLAESMRRLEDAFVNCKEEMEKNWQELLHETKQRL	2 and 4	–	–
Human SYCE3 full-length (amino acids 1–88) (natural protein, UniProt A1L190 1-88, looked up, SYCE3, human, full length, amino acids 1–88 (protein of 88 amino acids); it assembles further with concentration; Tags removed with TEV protease; also called SYCE3 1–88; WT SYCE3; source: E. coli BL21(DE3), purified (Ni-NTA, amylose, anion exchange, SEC where appropriate); not shown: His6, N-terminal, cleaved; MBP, N-terminal, cleaved) MDDADPEERNYDNMLKMLSDLNKDLEKLLEEMEKISVQATWMAYDMVVMRTNPTLAESMRRLEDAFVNCKEEMEKNWQELLHETKQRL	–	24	–
SYCE3 1–88 PPP-loop (natural protein, human, UniProt A1L190 1-88, looked up, also called SYCE3 PPP-loop; source: E. coli BL21(DE3), purified (Ni-NTA, amylose, anion exchange, SEC where appropriate); not shown: His6, N-terminal, cleaved; MBP, N-terminal, cleaved) MDDADPEERNYDNMLKMLSDLNKDLEKLLEEMEKISVQATWMAYDMVVGGPPPTLAESMRRLEDAFVNCKEEMEKNWQELLHETKQRL	2	–	–
MBP-SYCE3 fusion protein (natural protein, human, UniProt A1L190 1-88, looked up, SYCE3, human; source: E. coli BL21(DE3), purified; not shown: MBP, N-terminal, kept) MDDADPEERNYDNMLKMLSDLNKDLEKLLEEMEKISVQATWMAYDMVVMRTNPTLAESMRRLEDAFVNCKEEMEKNWQELLHETKQRL	–	4 and 6	–
SYCE3 1–88 P53Q (natural protein, human, UniProt A1L190 1-88, looked up, SYCE3, human, amino acids 1–88 with P53Q; also called SYCE3 P53Q; source: E. coli BL21(DE3), purified (Ni-NTA, amylose, anion exchange, SEC where appropriate); not shown: His6, N-terminal, cleaved; MBP, N-terminal, cleaved) MDDADPEERNYDNMLKMLSDLNKDLEKLLEEMEKISVQATWMAYDMVVMRTNQTLAESMRRLEDAFVNCKEEMEKNWQELLHETKQRL	–	–	binding result [1]: binds
SYCE3 1–88 W41E/Y44E (natural protein, human, UniProt A1L190 1-88, looked up, SYCE3, human, amino acids 1–88 with W41E and Y44E; also called SYCE3 W41E/Y44E; source: E. coli BL21(DE3), purified (Ni-NTA, amylose, anion exchange, SEC where appropriate); not shown: His6, N-terminal, cleaved; MBP, N-terminal, cleaved) MDDADPEERNYDNMLKMLSDLNKDLEKLLEEMEKISVQATEMAEDMVVMRTNPTLAESMRRLEDAFVNCKEEMEKNWQELLHETKQRL	2	–	–
SYCE3 9–88 Y11N/L15N (domain or fragment, human, UniProt A1L190 9-88, looked up, SYCE3, human, amino acids 9–88 with Y11N and L15N (label of the legend; the text says 'mutation to glutamine'); source: E. coli BL21(DE3), purified (Ni-NTA, amylose, anion exchange, SEC where appropriate); not shown: His6, N-terminal, cleaved; MBP, N-terminal, cleaved) RNNDNMNKMLSDLNKDLEKLLEEMEKISVQATWMAYDMVVMRTNPTLAESMRRLEDAFVNCKEEMEKNWQELLHETKQRL	–	2	–
SYCE3 9–88 (domain or fragment, human, UniProt A1L190 9-88, looked up, SYCE3, human, amino acids 9–88 (unstructured N terminus removed); source: E. coli BL21(DE3), purified (Ni-NTA, amylose, anion exchange, SEC where appropriate); not shown: His6, N-terminal, cleaved; MBP, N-terminal, cleaved) RNYDNMLKMLSDLNKDLEKLLEEMEKISVQATWMAYDMVVMRTNPTLAESMRRLEDAFVNCKEEMEKNWQELLHETKQRL	–	–	binding result [3]: binds
